Laboratory results reported in PMC4024195.

Legend:
glucokinase-YN155 [1] = target: glucokinase-YN155 (UniProt P17712); assay: BiFC assay; settings: COS1 cells, 25 mM glucose, without dibutyryl cAMP; parent: est. 36; read off a plot
glucokinase-YN155 [2] = target: glucokinase-YN155 (UniProt P17712); assay: BiFC assay; settings: COS1 cells, 25 mM glucose, read off a plot

Sequence of UniProt P17712 (P17712 whole entry): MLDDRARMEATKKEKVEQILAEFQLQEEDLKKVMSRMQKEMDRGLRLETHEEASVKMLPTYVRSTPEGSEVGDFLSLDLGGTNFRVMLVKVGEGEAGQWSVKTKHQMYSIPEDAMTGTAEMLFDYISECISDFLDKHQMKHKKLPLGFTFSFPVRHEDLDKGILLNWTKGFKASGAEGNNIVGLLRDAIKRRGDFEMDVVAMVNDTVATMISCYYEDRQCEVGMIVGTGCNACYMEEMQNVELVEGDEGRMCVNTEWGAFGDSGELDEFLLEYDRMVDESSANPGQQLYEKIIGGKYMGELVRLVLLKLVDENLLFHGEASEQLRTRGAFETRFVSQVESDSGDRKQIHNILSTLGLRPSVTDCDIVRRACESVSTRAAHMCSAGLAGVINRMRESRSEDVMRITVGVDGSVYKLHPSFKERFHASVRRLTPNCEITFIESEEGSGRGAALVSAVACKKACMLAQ

Substance | response (% transfected cells) (glucokinase-YN155 [1]) | response (% transfected cells) (glucokinase-YN155 [2]; 50 μM dibutyryl cAMP for 1 h, parent: est. 28) | response (% transfected cells) (glucokinase-YN155 [2]; without dibutyryl cAMP, parent: est. 36)
wild-type PFK2/FBPase2-YC155 (from UniProt P07953) S32A | 39 | 33 | 39
wild-type PFK2/FBPase2-YC155 (from UniProt P07953) S32D | 39 |  | 
